1 molecule from paper PMC3299299, “Recombinant Expression and Characterization of Human and Murine ACE2: Species-Specific Activation of the Alternative Renin-Angiotensin-System” (International Journal of Hypertension, 2012) can be followed below.

What all share (assay type): biochemical
One data set concerns Ang 1–10. Description: In vitro kinetic assay, Ang 1–10 cleavage to Ang 1–9, HPLC quantification. The procedure:
(§1) Enzyme reactions were started by adding a defined amount of enzyme to substrate dilutions in MES-buffer (50 mM MES, 300 mM NaCl, 10 μM ZnCl2, 0.01% Brij-35, pH 6.5) which were previously equilibrated at 37°C. Aliquots of the reaction mixes were taken every 10 minutes and stopped by addition of 0.5 M EDTA to a final concentration of 100 mM before HPLC-based quantification of peptides.
(§2) The concentration of peptides in enzymatic reactions was quantified by detection of peaks eluted from the HPLC column using an in-line diode array detector. Chromatography was performed by running a gradient on a reversed-phase matrix (Source 5RPC, 4.6×150 mm, 5 μm) with 0.08% H3PO4 in water as mobile phase A and 40% acetonitrile in water and 0.08% H3PO4 as mobile phase B. The optical density at 280 nm was recorded inline for all eluting peaks, and peptide concentrations were calculated via calibration curves for each individual peptide.
The turnover rates for natural ACE2 substrates were determined by in vitro incubation with excess amounts of substrate followed by reversed-phase HPLC analysis. […] Each time point was analyzed in true triplicates and standard deviations are given in the graphs together with linear regressions of the measured values.

For data set [1], the system named is human RAS in blood plasma. Description: Ex vivo incubation of renin-spiked human plasma, RAS-Fingerprinting by LC-MS/MS. As to conditions: human plasma + 100 pg/mL recombinant human renin, 10 μM Lisinopril present, without or with 5 μg/mL enzyme, 10 min 37°C (Fig 3b); 0 = below quantification limit (2 pg/mL plasma).
Method: Anticoagulated blood was collected from healthy volunteers, and plasma was separated by 10 minutes centrifugation at 3000 RCF. […] After 10 minutes of incubation at 37°C, in the presence or absence of Lisinopril (Sigma), samples were chilled on ice and immediately subjected to LC-MS/MS analysis.
Plasma samples were spiked with 100 pg/mL stable-isotope-labeled internal standards and subjected to solid-phase extraction using Sep-Pak cartridges (Waters) according to manufacturers protocol. Following elution and solvent evaporation, samples were reconstituted in 50 μL 50% acetonitrile/0.1% formic acid and subjected to LC-MS/MS analysis using a reversed-phase analytical column (Luna C18, Phenomenex) using a gradient ranging from 10% acetonitrile/0.1% formic acid to 70% acetonitrile/0.1% formic acid in 9 minutes. The eluate was analyzed in line with a QTRAP-4000 mass spectrometer (AB Sciex) operated in the MRM mode using dwell times of 25 msec at a cone voltage of 4000 volts and a source temperature of 300°C. For each peptide and corresponding internal standards, two different mass transitions were measured. Angiotensin peptide concentrations were calculated by relating endogenous peptide signals to internal standard signals provided that integrated signals achieved a signal-to-noise ratio above 10.
RAS-Fingerprints were measured by LC-MS/MS as indicated in Section 2. Samples were incubated in the absence (a) or presence (b) of 10 μM of the ACE inhibitor Lisinopril. In this figure, the diameter of the spheres reflects the concentration of the respective peptide metabolite, which is also given in pg/mL next to each individual sphere. 0 pg/mL indicates concentrations below quantification limits, which are defined by a signal-to-noise ratio below 10. Furthermore, the amino acid sequence of each angiotensin metabolite is schematically given in brackets beside the corresponding sphere. The sequence annotation is based on the decapeptide Angiotensin I (1–10) which is N- or C-terminally cleaved by the indicated proteases. […]
For a further data set, the system named is Ang 1–8. Description: In vitro kinetic assay, Ang 1–8 cleavage to Ang 1–7, HPLC quantification. The settings on record: ratio of k cat of the same enzyme for the two substrates. The procedure: as §1, §2
The turnover rates for natural ACE2 substrates were determined by in vitro incubation with excess amounts of substrate followed by reversed-phase HPLC analysis. […] The resulting time courses are shown in the graphs. […] Each time point was analyzed in true triplicates and standard deviations are given in the graphs together with linear regressions of the measured values.

Bounds are passed on as bounds.

B1: rmACE2: extracellular domain of murine ACE2 recombinantly expressed in CHO cells (protein)
chain: QSLTEENAKTFLNNFNQEAEDLSYQSSLASWNYNTNITEENAQKMSEAAAKWSAFYEEQSKTAQSFSLQEIQTPIIKRQLQALQQSGSSALSADKNKQLNTILNTMSTIYSTGKVCNPKNPQECLLLEPGLDEIMATSTDYNSRLWAWEGWRAEVGKQLRPLYEEYVVLKNEMARANNYNDYGDYWRGDYEAEGADGYNYNRNQLIEDVERTFAEIKPLYEHLHAYVRRKLMDTYPSYISPTGCLPAHLLGDMWGRFWTNLYPLTVPFAQKPNIDVTDAMMNQGWDAERIFQEAEKFFVSVGLPHMTQGFWANSMLTEPADGRKVVCHPTAWDLGHGDFRIKMCTKVTMDNFLTAHHEMGHIQYDMAYARQPFLLRNGANEGFHEAVGEIMSLSAATPKHLKSIGLLPSDFQEDSETEINFLLKQALTIVGTLPFTYMLEKWRWMVFRGEIPKEQWMKKWWEMKREIVGVVEPLPHDETYCDPASLFHVSNDYSFIRYYTRTIYQFQFQEALCQAAKYNGSLHKCDISNSTEAGQKLLKMLSLGNSEPWTKALENVVGARNMDVKPLLNYFQPLFDWLKEQNRNSFVGWNTEWSPYADQSIKVRISLKSALGANAYEWTNNEMFLFRSSVAYAMRKYFSIIKNQTVPFLEEDVRVSDLKPRVSFYFFVTSPQNVSDVIPRSEVEDAIRMSRGRINDVFGLNDNSLEFLGIHPTLEPPYQPPVT
Regarding B1, the “Ang 1–10-related turnover rate of rmACE2 as share of the rate for rhACE2” value with Ang 1–10 stood at 7%. The “k cat, Ang 1–10 ≥ Ang 1–9” value with Ang 1–10 ([…] enzyme, 65 μM Ang 1–10, MES buffer pH 6.5, 37°C, HPLC, mean of substrate degradation and product formation rates related to enzyme concentration, triplicates) turned out to be 0.0013 s⁻¹. The “Ang (1–7) concentration in plasma” value in data set [1] is given as less than 2 pg/mL. Besides, in the data set with Ang 1–8, the “turnover number for Ang 1–8 compared to Ang 1–10” value came out at 492 fold.
